Laboratory results published in patent publication US9549967B2, “Regulation of sodium channels by PLUNC proteins” (The University of North Carolina at Chapel Hill, priority 2009, dated 2017).

What was measured:
ENaC = biological target: T1, ENaC (Homo sapiens, UniProt P37088+P51168+P51170); assay: Transepithelial electrical resistance of human bronchial epithelial cultures (EVOM); type: cell-based; settings: washed cultures; 50 ng/ml SPLUNC1 for 30 min or amiloride; effects not additive
T1 construct: endogenous in cells; host or cells: primary human bronchial epithelial cultures
T1 sequence (P37088 1-669): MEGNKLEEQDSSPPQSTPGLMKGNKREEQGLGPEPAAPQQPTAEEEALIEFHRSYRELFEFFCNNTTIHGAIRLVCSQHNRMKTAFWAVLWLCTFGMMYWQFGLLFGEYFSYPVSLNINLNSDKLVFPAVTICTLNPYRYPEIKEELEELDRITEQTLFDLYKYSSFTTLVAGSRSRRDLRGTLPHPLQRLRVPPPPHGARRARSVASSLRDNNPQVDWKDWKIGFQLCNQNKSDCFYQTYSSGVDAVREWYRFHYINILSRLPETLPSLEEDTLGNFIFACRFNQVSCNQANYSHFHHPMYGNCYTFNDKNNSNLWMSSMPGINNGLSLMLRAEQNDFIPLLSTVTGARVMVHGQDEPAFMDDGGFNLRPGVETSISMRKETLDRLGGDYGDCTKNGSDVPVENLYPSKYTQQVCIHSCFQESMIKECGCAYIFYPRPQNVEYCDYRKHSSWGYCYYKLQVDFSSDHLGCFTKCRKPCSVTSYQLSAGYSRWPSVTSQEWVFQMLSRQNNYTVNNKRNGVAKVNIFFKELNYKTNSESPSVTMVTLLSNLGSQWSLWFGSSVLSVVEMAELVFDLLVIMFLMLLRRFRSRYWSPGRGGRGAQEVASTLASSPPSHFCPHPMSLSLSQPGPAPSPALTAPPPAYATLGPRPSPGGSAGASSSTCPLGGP
T1 sequence (P51168 1-640): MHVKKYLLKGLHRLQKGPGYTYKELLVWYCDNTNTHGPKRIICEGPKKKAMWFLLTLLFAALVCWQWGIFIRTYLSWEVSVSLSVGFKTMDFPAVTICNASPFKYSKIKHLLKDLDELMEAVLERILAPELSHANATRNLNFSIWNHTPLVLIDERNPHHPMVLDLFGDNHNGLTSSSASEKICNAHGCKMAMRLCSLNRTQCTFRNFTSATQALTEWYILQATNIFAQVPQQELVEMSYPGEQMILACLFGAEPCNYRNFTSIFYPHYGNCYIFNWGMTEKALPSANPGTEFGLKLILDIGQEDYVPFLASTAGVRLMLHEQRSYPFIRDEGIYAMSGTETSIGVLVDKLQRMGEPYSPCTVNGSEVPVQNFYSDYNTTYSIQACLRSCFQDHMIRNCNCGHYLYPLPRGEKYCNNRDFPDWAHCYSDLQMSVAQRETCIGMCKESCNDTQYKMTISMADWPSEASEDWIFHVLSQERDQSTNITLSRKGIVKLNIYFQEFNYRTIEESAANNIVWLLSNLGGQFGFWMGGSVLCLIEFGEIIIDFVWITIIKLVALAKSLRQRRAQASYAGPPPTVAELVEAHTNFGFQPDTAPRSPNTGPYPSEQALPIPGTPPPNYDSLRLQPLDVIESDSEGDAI
T1 sequence (P51170 1-649): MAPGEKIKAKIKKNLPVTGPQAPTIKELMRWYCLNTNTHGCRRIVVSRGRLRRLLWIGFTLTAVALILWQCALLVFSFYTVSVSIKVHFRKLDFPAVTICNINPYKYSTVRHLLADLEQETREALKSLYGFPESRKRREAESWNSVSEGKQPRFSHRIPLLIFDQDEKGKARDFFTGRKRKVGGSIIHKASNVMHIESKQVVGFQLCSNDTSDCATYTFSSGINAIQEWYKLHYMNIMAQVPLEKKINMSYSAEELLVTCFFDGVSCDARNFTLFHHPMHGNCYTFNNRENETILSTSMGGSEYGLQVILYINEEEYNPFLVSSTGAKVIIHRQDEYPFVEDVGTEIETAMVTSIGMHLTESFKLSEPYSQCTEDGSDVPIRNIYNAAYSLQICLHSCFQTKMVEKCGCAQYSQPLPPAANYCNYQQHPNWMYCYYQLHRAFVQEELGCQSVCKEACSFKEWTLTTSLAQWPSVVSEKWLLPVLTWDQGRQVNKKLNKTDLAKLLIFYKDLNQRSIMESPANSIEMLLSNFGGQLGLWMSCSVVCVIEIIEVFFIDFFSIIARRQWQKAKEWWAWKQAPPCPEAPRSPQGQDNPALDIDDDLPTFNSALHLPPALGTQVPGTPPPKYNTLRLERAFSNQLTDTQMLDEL
Description: Tissue procurement and cell culture: Cells were harvested by enzymatic digestion from human bronchial tissue as previously described under a protocol approved by the UNC School of Medicine IRB (Tarran et al., J. Gen. Physiol. 127:591 (2006)). Human excess donor lungs and excised recipient lungs were obtained at the time of lung transplantation from portions of main stem or […] bronchi and cells were harvested by enzymatic digestion. All preparations were maintained at an air-liquid interface in a modified bronchial epithelial medium and used 2-5 weeks after seeding on 12 mm T-Clear inserts (Corning Costar) coated with human placental type VI collagen (Sigma). Phosphate buffered saline (PBS) was used for washing human bronchial epithelial culture mucosal surfaces.
Microelectrode studies. A single-barreled potential difference-sensing electrode was placed in the airway surface liquid by micromanipulator and used in conjunction with a macroelectrode in the serosal solution to measure transepithelial voltage using a voltmeter (World Precision Instruments). […] Transepithelial resistance was routinely measured using the EVOM system (WPI) as previously described (Tarran et al., J. Gen. Physiol. 127:591 (2006)).

serine proteases = assay: Endogenous protease activity (BGAR-MCA cleavage) on mucosal surfaces of human bronchial epithelial cultures; type: cell-based
Protocol: For cell-free assays, reactions were carried out in 50 μl Ringer in a 96 well plate format with 100 μM BGAR-MCA. To measure endogenous protease activity in human bronchial epithelial cultures, 30 μl Ringer with 100 μM BGAR-MCA were placed directly onto the mucosal surfaces of human bronchial epithelial cultures grown on 12 mm T-clear inserts and the cultures were assayed in 12 well plates.

B1: SPLUNC1: human SPLUNC1, 256 amino acid secreted PLUNC protein (SEQ ID NO:1); rSPLUNC1 = V5/6His-tagged protein purified from HEK293 media (protein, listed as Homo sapiens)
chain: MFQTGGLIVFYGLLAQTMAQFGGLPVPLDQTLPLNVNPALPLSPTGLAGSLTNALSNGLLSGGLLGILENLPLLDILKPGGGTSGGLLGGLLGKVTSVIPGLNNIIDIKVTDPQLLELGLVQSPDGHRLYVTIPLGIKLQVNTPLVGASLLRLAVKLDITAEILAVRDKQERIHLVLGDCTHSPGSLQISLLDGLGPLPIQGLLDSLTGILNKVLPELVQGNVCPLVNEVLRGLDITLVHDIVNMLIHGLQFVIKV
modifications: V5/6His tag
notes: rSPLUNC1 = V5/6His-tagged protein purified from HEK293 media
increase of the transepithelial electrical resistance (ENaC): ~33% | spontaneous BGAR-MCA cleavage on mucosal surfaces (serine proteases): no significant affect
